B1: Ventral anterior homeobox 1, residues 102 to 157; numbered along this chain, Q5SQQ9 (parent)
chain: RTRTSFTAEQLYRLEMEFQRCQYVVGRERTELARQLNLSETQVKVWFQNRRTKQKK
B2: Glucocorticoid receptor, residues 419 to 494; numbered along this chain, P04150 (parent)
chain: KLCLVCSDEASGCHYGVLTCGSCKVFFKRAVEGQHNYLCAGRNDCIIDKIRRKNCPACRYRKCLQAGMNLEARKTK

Variants of: B1
Experiment: abundance fitness (aPCA) (normalised: wild type 0, dead -1); higher = more abundant; growth selection in yeast, the domain comes from the species named
Conditions: Homo sapiens

Abundance fitness: each site, then its substitutions
T2: H -0.38, F -0.3, M -0.128, D -0.034, W -0.566, Y -0.335, P -0.098, L -0.406, E -0.012, R -0.166, K -0.202, Q 0.135, C -1.01, S -0.074, N 0.271, G 0.013
E17: T -0.297, D -0.65, R -0.421, S -0.294, V -0.296, K -0.604, I -0.544, M -0.281, G -0.679, L -0.558, Q -0.296, W -0.359, H -0.044, C -0.209, F -0.031
L14: S -0.906, F -0.789, I -0.54, C -0.518, M -0.368, W -0.747, A -0.708, T -0.843, V -0.619
R20: K -0.428, L -0.223, D 0.149, G -0.409, I -0.386, F -0.47, M -0.001, E -0.261, C -0.303
M16: N -0.407, P -1.12, T -0.076, A -0.043, Y -0.173, Q 0.008, V -0.09, G -0.109, I -0.295, F -0.285, D 0.075, C -0.055, W -0.291, S -0.027, R -0.233, K -0.301
F18: Y -0.124, I -0.689, V -0.887, M -0.674, C -0.741, L -0.927, W -0.181
E15: D -0.379, L -0.44, C -0.803, R -0.787, W -0.71, N -0.564, S -0.766, A -0.876, G -0.823, Q -1.01, M -0.982, H -1.08, F -0.533, P -1.07, V -0.847
R13: P -0.849, F -0.29, W -0.211, Y -0.316, E -0.513, V -0.311, C -0.161, L -0.068, I 0.092, K -0.004, M -0.022, Q 0.163, N -0.283, G -0.207, H -0.066, T -0.113, A 0.089, S -0.074
E9: F 0.005, S -0.408, L -0.439, V -0.157, A -0.244, K -0.453, P -0.669, Y -0.398, R -0.455, N -0.733, Q -0.207, T -0.464, I -0.456, W -0.12, C -0.299, M -0.235, H -0.509, D -0.135
L11: P -0.893, I -0.059, H 0.005, M -0.172, R -0.61, F -0.159, D 0.022, Y -0.335, K -0.274, N 0.18, A -0.075, E 0.308, T -0.149, W -0.494, Q 0.231, G -0.254
A8: C -0.212, R -0.332, E 0, H -0.817, N 0.059, I -0.363, S -0.064, L -0.14, W -0.348, F -0.473, Q -0.301, G -0.205, P -0.049, Y -0.158, M -0.104, V -0.154
R1: E -0.025, G -0.002, C 0.058, M 0.083, T -0.465, S -0.042, I 0.024
S5: I -0.177, Y -0.013, Q 0.028, D 0.262, W -0.189, G -0.002, M 0.08, H -0.224, L -0.179, E 0.326, C -0.225, R -0.597, K -0.747
Y12: W 0.001, L -0.086, T 0.018, I -0.188, A 0.044, C -0.176, M 0.102, V -0.085, P -0.967, F -0.13, S 0.069
Q19: H -0.274, M -0.133, C -0.225, I -0.165, D -0.161, T -0.046, L -0.044, W -0.213, N -0.115, S -0.063, E -0.039, Y -0.603, V -0.153, G -0.133, F -0.33, R -0.316, P -0.732, A -0.002
T7: V -0.466, Y -0.652, A -0.411, G -0.311, C -0.335, I -0.56, L -0.704, E -0.279, H -0.407, S -0.158, R -0.499, N -0.105, M -0.452, P -0.734, D -0.043, K -0.589, F -0.77, W -0.925
F6: K -0.42, Q -0.347, P -0.337, R -0.71, G -0.427, N -0.43, E -0.559, A -0.616, M 0.049, H -0.283, L -0.029, I -0.089, T -0.556, V -0.105, D -0.445, S -0.729, W -0.052, C -0.536
R3: A 0.002, N 0.268, Q 0.084, G 0.223, D 0.326, C 0.211, L 0.156, Y 0.071, P 0.164, S 0.266, V 0.096, W 0.054, I 0.251, K 0.168, H 0.229, M 0.279, F 0.209
T4: H -0.49, Q -0.11, L 0.205, G -0.269, W -0.095, C -0.165, E 0.169, I -0.193, F -0.347, M 0.107, D -0.14, N 0.033, A -0.188, S -0.058, P -0.074, V -0.092, R -0.35, K -0.079

Variants of: B2
Experiment: as above
Conditions: Homo sapiens

Abundance fitness of substitutions, site by site:
K76: D 0.02, E 0.105, Y -0.206, V -0.001, S 0.099, F 0.006, A 0.028, N 0.045, L -0.001, C 0.132, I -0.277, G 0.018, H -0.096, M -0.023, P 0.004, W -0.137
K74: W -0.017, G -0.006, Q 0.063, D 0.19, N -0.01, I 0.027, E 0.091, M 0.009, V -0.008, C -0.032, T -0.034, P -0.049, H 0.039, S -0.047, R 0.054, A -0.033, F 0.047, Y 0.043, L 0.077
R73: N -0.133, P -0.007, S 0.003, Y -0.062, Q -0.061, T 0.024
T75: R -0.01, M -0.004, W 0.047, L 0.054, C -0.075, H -0.038, V -0.064, P -0.005, K 0.007, Q -0.099, S 0.008, D 0.023, A 0.029, N 0.014, F 0.064, E 0.032, I -0.044, G 0.044
